From article PMC5007091 (Molecular Biology of the Cell, 2016)

Molecular target: the molecule itself
Assay: split reporter

B1: Cdc10 (natural protein)
chain: MDPLSSVQPASYVGFDTITNQIEHRLLKKGFQFNIMVVGQSGLGKSTLINTLFASHLIDSATGDDISALPVTKTTEMKISTHTLVEDRVRLNINVIDTPGFGDFIDNSKAWEPIVKYIKEQHSQYLRKELTAQRERFITDTRVHAILYFLQPNGKELSRLDVEALKRLTEIANVIPVIGKSDTLTLDERTEFRELIQNEFEKYNFKIYPYDSEELTDEELELNRSVRSIIPFAVVGSENEIEINGETFRGRKTRWSAINVEDINQCDFVYLREFLIRTHLQDLIETTSYIHYEGFRARQLIALKENANSRSSAHMSSNAIQR
  fluorescence at the bud neck, fold over the negative controls: > 20 fold
